Laboratory results from patent US20240116985A1 (published 2024).
Starred links: 1 amine or outer side, 2 acyl side, 3 side chain; linkers in the order of their positions; H or OH if unused. Positions of bridges follow the written chain, without caps; N, C: chain ends. Non-standard residues stand in square brackets, D forms with d. Primed or numbered codes have the meaning given here. *: point of attachment. PyrS2″ = (S)-3-amino-1-((pent-4-en-1-yloxy)carbonyl)pyrrolidine-3-carboxylic acid (stapling residue), C=CCCCOC(=O)N1CC[C@@](N[*:1])(C(=O)[*:2])C1; B5(16) = 2-amino-2-(pent-4-en-1-yl)hept-6-enoic acid = 2,2-bis(4-pentenyl)glycine (stitching residue), C=CCCCC(CCCC=C)(N[*:1])C(=O)[*:2]; B5(4) = 2,2-bis(4-pentenyl)glycine = 2-amino-2-(pent-4-en-1-yl)hept-6-enoic acid (stitching residue), C=CCCCC(CCCC=C)(N[*:1])C(=O)[*:2]; TfeGA = (S)-2-amino-3-((carboxymethyl)(2,2,2-trifluoroethyl)amino)propanoic acid, O=C([C@H](CN(CC(=O)[*:3])CC(F)(F)F)N[*:1])[*:2]; PyrS2 = (S)-3-amino-1-((pent-4-en-1-yloxy)carbonyl)pyrrolidine-3-carboxylic acid, C=CCCCOC(=O)N1CC[C@@](N[*:1])(C(=O)[*:2])C1; 4MePipBz = 4-((4-methylpiperazin-1-yl)methyl)benzoyl on Lys side chain, CN1CCN(Cc2ccc(C(=O)*)cc2)CC1; MeBipipAc = 1'-methyl-[1,4'-bipiperidine]-4-carbonyl on Lys side chain, CN1CCC(N2CCC(C(=O)*)CC2)CC1; 35CF3PhPr = 3-(3,5-bis(trifluoromethyl)phenyl)propanoyl, O=C(CCc1cc(C(F)(F)F)cc(C(F)(F)F)c1)*; B5(3) = 2,2-bis(4-pentenyl)glycine (stitching residue), C=CCCCC(CCCC=C)(N[*:1])C(=O)[*:2]; Me3AdamantC = 3,5,7-trimethyladamantane-1-carbonyl, CC12CC3(C)CC(C)(C1)CC(C(=O)*)(C2)C3; AspSH = (S)-2-amino-4-mercapto-4-oxobutanoic acid, O=C(C[C@H](N[*:1])C(=O)[*:2])S[*:3]; MeMorphBz = 4-(morpholinomethyl)benzoyl on Lys side chain, O=C(c1ccc(CN2CCOCC2)cc1)*; B5 = 2-amino-2-(pent-4-en-1-yl)hept-6-enoic acid, C=CCCCC(CCCC=C)(N[*:1])C(=O)[*:2]; 22PhPr = 2,2-diphenylpropanoyl on Lys side chain, CC(C(=O)*)(c1ccccc1)c1ccccc1; AcLys″ = N6-acetyl-lysine, CC(=O)NCCCC[C@H](N[*:1])C(=O)[*:2]; Propanoyl(3-(1-naphthyl)) = O=C(CCc1cccc2ccccc12)*; Acetyl(4-Me-piperazin-1-yl) = CN1CCN(CC(=O)*)CC1; Phe(3-CONH2) = NC(=O)c1cccc(C[C@H](N)C(=O)O)c1; Phe(2-CF3) = N[C@@H](Cc1ccccc1C(F)(F)F)C(=O)O; Phe(2-CONH2) = NC(=O)c1ccccc1C[C@H](N)C(=O)O; Phe(2-Cl) = N[C@@H](Cc1ccccc1Cl)C(=O)O; Ala(cPent) = N[C@@H](CC1CCCC1)C(=O)O; Bta = N[C@@H](Cc1csc2ccccc12)C(=O)O; αAllylPro = C=CC[C@@]1(C(=O)O)CCCN1; Morpholinoacetyl = O=C(CN1CCOCC1)*; tBuAla = CC(C)(C)C[C@H](N)C(=O)O; 3Thi = N[C@@H](Cc1ccsc1)C(=O)O; AdamantC = not defined here; PyrS2(4) = not defined here; Octanoyl = CCCCCCCC(=O)*

T1: B-cat-Halo (UniProt P35222 1-781)
T1 sequence (looked up): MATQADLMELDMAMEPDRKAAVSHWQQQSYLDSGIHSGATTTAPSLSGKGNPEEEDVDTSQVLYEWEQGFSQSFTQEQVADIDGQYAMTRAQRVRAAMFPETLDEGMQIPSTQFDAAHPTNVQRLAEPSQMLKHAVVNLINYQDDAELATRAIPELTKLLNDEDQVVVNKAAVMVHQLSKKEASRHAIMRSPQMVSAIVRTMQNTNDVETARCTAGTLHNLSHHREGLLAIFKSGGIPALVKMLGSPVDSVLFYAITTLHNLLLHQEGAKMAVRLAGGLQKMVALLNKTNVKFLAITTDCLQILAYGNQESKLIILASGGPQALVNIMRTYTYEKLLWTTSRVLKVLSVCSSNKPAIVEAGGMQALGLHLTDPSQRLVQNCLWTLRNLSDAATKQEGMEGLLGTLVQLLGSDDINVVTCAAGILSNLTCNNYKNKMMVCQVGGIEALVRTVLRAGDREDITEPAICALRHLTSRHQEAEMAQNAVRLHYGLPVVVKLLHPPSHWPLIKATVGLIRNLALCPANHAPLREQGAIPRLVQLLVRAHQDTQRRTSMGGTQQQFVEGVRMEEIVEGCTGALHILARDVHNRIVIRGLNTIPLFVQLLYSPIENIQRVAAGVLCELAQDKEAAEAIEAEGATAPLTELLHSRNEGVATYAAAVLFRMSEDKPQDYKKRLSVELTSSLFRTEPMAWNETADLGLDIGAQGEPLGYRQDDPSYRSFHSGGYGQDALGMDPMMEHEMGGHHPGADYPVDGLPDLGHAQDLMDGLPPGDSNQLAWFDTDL

T2: B-cat-Halo (beta-catenin HaloTag NanoBRET construct expressed in HEK293 cells) (UniProt P35222 1-781)
T2 sequence (looked up): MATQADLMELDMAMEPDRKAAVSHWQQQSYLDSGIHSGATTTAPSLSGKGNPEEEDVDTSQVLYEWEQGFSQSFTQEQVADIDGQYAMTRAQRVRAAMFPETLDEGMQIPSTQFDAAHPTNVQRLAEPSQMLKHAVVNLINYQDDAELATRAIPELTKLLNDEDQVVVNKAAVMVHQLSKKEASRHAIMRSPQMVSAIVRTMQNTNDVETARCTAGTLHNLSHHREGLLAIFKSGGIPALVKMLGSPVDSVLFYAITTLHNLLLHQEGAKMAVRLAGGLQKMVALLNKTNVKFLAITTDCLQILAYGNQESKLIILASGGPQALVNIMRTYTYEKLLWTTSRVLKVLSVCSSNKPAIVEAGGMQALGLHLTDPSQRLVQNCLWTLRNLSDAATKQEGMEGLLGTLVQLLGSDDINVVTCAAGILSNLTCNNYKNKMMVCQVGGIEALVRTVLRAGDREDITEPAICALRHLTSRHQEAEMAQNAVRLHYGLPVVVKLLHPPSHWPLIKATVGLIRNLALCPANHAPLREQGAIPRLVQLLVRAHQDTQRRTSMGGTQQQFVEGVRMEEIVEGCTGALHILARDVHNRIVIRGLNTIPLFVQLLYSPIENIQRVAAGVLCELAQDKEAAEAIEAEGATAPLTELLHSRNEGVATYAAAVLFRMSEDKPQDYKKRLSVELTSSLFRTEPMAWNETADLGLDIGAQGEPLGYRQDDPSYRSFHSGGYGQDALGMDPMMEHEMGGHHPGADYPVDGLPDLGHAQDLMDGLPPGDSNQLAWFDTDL


Molecular target: T1, B-cat-Halo
Experiment: cell-based or functional assay

Question: With Ac-[αAllylPro]D[tBuAla][B5(16)]D[TfeGA]AAFL[PyrS2″][Phe(2-CF3)][Bta]Q-NH2 (staple 1-4, 4-11) [I-1704] as the binder, how does the “NanoBRET Abs IC50” value read?
Answer: 5.3 µM

Question: For Ac-[αAllylPro]D[tBuAla][B5(4)]D[TfeGA]AAFL[PyrS2″][3Thi][Bta][Phe(2-CONH2)]-NH2 (staple 1-4, 4-11) [I-1707], which “NanoBRET Abs IC50” value is on record?
Answer: 6.1 µM

Question: How did the “NanoBRET Abs IC50” value turn out when Ac-[αAllylPro]D[tBuAla][B5(4)]D[TfeGA]AAFL[PyrS2″][Ala(cPent)][Bta]Q-NH2 (staple 1-4, 4-11; also: -CH=CH- in each staple reduced to -CH2-CH2-) [I-1713] was run?
Answer: > 20 µM

Question: Ac-[αAllylPro]D[tBuAla][B5(4)]D[TfeGA]AAFL[PyrS2″]F[Bta]Q-NH2 (staple 1-4, 4-11; also: -CH=CH- in each staple reduced to -CH2-CH2-) [I-1711] was tested. Which “NanoBRET Abs IC50” value did it give?
Answer: 33.3 µM

Question: Which “NanoBRET Abs IC50” value does the source give for Ac-[αAllylPro]D[tBuAla][B5(4)]D[TfeGA]AAFL[PyrS2″][3Thi][Bta][AcLys″]-NH2 (staple 1-4, 4-11; also: -CH=CH- in each staple reduced to -CH2-CH2-) [I-1719] here?
Answer: 27.6 µM

Question: For Ac-[αAllylPro]D[tBuAla][B5]D[TfeGA]AAFL[PyrS2][Ala(cPent)][Bta]Q-NH2 (staple 1-4, 4-11) [I-1703], which “NanoBRET Abs IC50” value is on record?
Answer: 6.6 µM

Question: Which “NanoBRET Abs IC50” value does the source give for Ac-[αAllylPro]D[tBuAla][B5(4)]D[TfeGA]AAFL[PyrS2″][3Thi][Bta]T-NH2 (staple 1-4, 4-11; also: -CH=CH- in each staple reduced to -CH2-CH2-) [I-1716] here?
Answer: 21.7 µM

Question: With Ac-[αAllylPro]D[tBuAla][B5(16)]D[TfeGA]AAFL[PyrS2″][3Thi][Bta]N-NH2 (staple 1-4, 4-11) [I-1705] as the binder, how does the “NanoBRET Abs IC50” value read?
Answer: 2.9 µM

Question: Which “NanoBRET Abs IC50” value does the source give for Ac-[αAllylPro]D[tBuAla][B5(4)]D[TfeGA]AAFL[PyrS2″][3Thi][Bta]N-NH2 (staple 1-4, 4-11; also: -CH=CH- in each staple reduced to -CH2-CH2-) [I-1715] here?
Answer: 38.4 µM

Question: Ac-[αAllylPro]D[tBuAla][B5(4)]D[TfeGA]AAFL[PyrS2″][3Thi][Bta][Phe(3-CONH2)]-NH2 (staple 1-4, 4-11) [I-1708] was tested. Which “NanoBRET Abs IC50” value did it give?
Answer: 11.9 µM

Question: Which “NanoBRET Abs IC50” value does the source give for Ac-[αAllylPro]D[tBuAla][B5(4)]D[TfeGA]AAFL[PyrS2″][Phe(2-CF3)][Bta]Q-NH2 (staple 1-4, 4-11; also: -CH=CH- in each staple reduced to -CH2-CH2-) [I-1714] here?
Answer: 28.6 µM

Question: With Ac-[αAllylPro][AspSH][tBuAla][B5]DDAAFN[PyrS2][Phe(2-Cl)][Bta]Q-NH2 (staple 1-4, 4-11; not fully specified) [I-1721] as the binder, how does the “NanoBRET Abs IC50” value read?
Answer: > 20 µM

Molecular target: T2, B-cat-Halo (beta-catenin HaloTag …)
Experiment: cell-based or functional assay

Question: How did the “NanoBRET Abs IC50” value turn out when Ac-[αAllylPro]D[tBuAla][B5(3)]DDAAFN[PyrS2″][3Thi][Bta]QK(MeBipipAc)-NH2 (staple 1-4, 4-11) [I-907] was run?
Answer: 27.8 µM

Question: Ac-[αAllylPro]D[tBuAla][B5(3)]DDAAFN[PyrS2][3Thi][Bta]QK(35CF3PhPr)-NH2 (staple 1-4, 4-11) [I-902] was tested. Which “NanoBRET Abs IC50” value did it give?
Answer: 21.2 µM

Question: How did the “NanoBRET Abs IC50” value turn out when Ac-[αAllylPro]D[tBuAla][B5(3)]DDAAFN[PyrS2″][3Thi][Bta]QK(MeMorphBz)-NH2 (staple 1-4, 4-11) [I-909] was run?
Answer: 28.4 µM

Question: How did the “NanoBRET Abs IC50” value turn out when Ac-[αAllylPro]D[tBuAla][B5(3)]DDAAFN[PyrS2″][3Thi][Bta]QK(4MePipBz)-NH2 (staple 1-4, 4-11) [I-908] was run?
Answer: 26 µM

Question: Ac-[αAllylPro]D[tBuAla][B5(3)]DDAAFN[PyrS2″][3Thi][Bta]QK(Acetyl(4-Me-piperazin-1-yl))-NH2 (staple 1-4, 4-11) [I-906] was tested. Which “NanoBRET Abs IC50” value did it give?
Answer: 26.5 µM

Question: With Ac-[αAllylPro]D[tBuAla][B5(3)]DDAAFN[PyrS2″][3Thi][Bta]QK(22PhPr)-NH2 (staple 1-4, 4-11) [I-904] as the binder, how does the “NanoBRET Abs IC50” value read?
Answer: 20 µM

Question: With Ac-[αAllylPro]D[tBuAla][B5(3)]DDAAFN[PyrS2″][3Thi][Bta]QK(Propanoyl(3-(1-naphthyl)))-NH2 (staple 1-4, 4-11) [I-903] as the binder, how does the “NanoBRET Abs IC50” value read?
Answer: 7.8 µM

Question: How did the “NanoBRET Abs IC50” value turn out when Ac-[αAllylPro]D[tBuAla][B5(3)]DDAK(Me3AdamantC)FN[PyrS2][3Thi][Bta]Q-NH2 (staple 1-4, 4-11) [I-900] was run?
Answer: > 20 µM

Question: Ac-[αAllylPro]D[tBuAla][B5(3)]DDAAFN[PyrS2″][3Thi][Bta]QK(Morpholinoacetyl)-NH2 (staple 1-4, 4-11) [I-905] was tested. Which “NanoBRET Abs IC50” value did it give?
Answer: 31.6 µM

Question: How did the “NanoBRET Abs IC50” value turn out when Ac-[αAllylPro]D[tBuAla][B5(3)]DDAK(AdamantC)FN[PyrS2(4)][3Thi][Bta]Q-NH2 (staple 1-4, 4-11; reading uncertain) [I-899] was run?
Answer: > 20 µM

Question: Ac-[αAllylPro]D[tBuAla][B5(3)]DDAK(Octanoyl)FN[PyrS2][3Thi][Bta]Q-NH2 (staple 1-4, 4-11; not fully specified) [I-898] was tested. Which “NanoBRET Abs IC50” value did it give?
Answer: > 20 µM
